Data reported in US20240091361A1, “T CELL RECEPTORS TARGETING RAS MUTATIONS AND USES THEREOF” (MEMORIAL SLOAN-KETTERING CANCER CENTER, priority 2021, published 2024).
Values belong to the molecule of their own block, whether it stands above or below them.

Columns and labels:
[1] = molecular target: T1, peptide-pulsed HLA-A*11:01+ COS-7 target cells (Homo sapiens, UniProt P04439, A114D/D185E/E176A/F33Y/L180Q/S129P/T187R); experiment: Cross-reactivity: IFN-γ ELISA after coculture of RAS TCR-T cells with peptide-pulsed HLA-A*11:01+ COS-7 cells; format: cell-based; conditions: peptides of Tables 7-11 at 1 μM, E:T 1:1, 24 h; background threshold 50 pg/mL
T1 construct: Target COS-7 cells were electroporated with mRNA encoding full-length human HLA*11:01; expressed in transfected cells; host or cells: COS-7 cells electroporated with mRNA
Procedure: Next, studies were conducted to determine the cross-reactivity potential of RAS-specific TCRs. Individual TCR peptide motifs were scanned against the human proteome to identify potential cross-reactive sequences. Target COS-7 cells were electroporated with mRNA encoding full-length human HLA*11:01 and incubated at 37 degrees overnight to allow HLA-A*11:01 protein expression. […]. The cells were then pulsed with an individual peptide corresponding to its RAS-specific TCR (see Tables 7-11) at a concentration of 1 μM; finally, wild-type (WT) and mutated RAS peptides were included as functional controls. RAS TCR-T cells, expressing individual RAS TCRs 1-5, were added at an E:T ratio of 1:1 and incubated at 37 degrees for 24 h. Supernatants were harvested from coculture wells to perform an ELISA assay to determine levels of IFN-γ production.

[2] = molecular target: T2, GEM (also listed as SEQ ID NOs 82, 106, 130, 141) peptide on HLA-A*11:01 (human); experiment: cytokine release
T2 peptide: AVFGAGGVGK

[3] = molecular target: T3, KRAS wild type (10-mer) peptide on HLA-A*11:01 (human); experiment: cytokine release
T3 peptide: VVVGAGGVGK

[4] = molecular target: T4, KRAS G12D (10-mer; the same sequence in NRAS G12D and HRAS G12D) peptide on HLA-A*11:01 (human); experiment: multimer staining
T4 peptide: VVVGADGVGK

B2: TCR 5: T cell receptor targeting RAS G12D peptide; α chain SEQ ID NO: 50, β chain SEQ ID NO: 51 (protein, listed as Homo sapiens)
alpha: MKTFAGFSFLFLWLQLDCMSRGEDVEQSLFLSVREGDSSVINCTYTDSSSTYLYWYKQEPGAGLQLLTYIFSNMDMKQDQRLTVLLNKKDKHLSLRIADTQTGDSAIYFCAERDAGNNRKLIWGLGTSLAVNPNIQNPDPAVYQLRDSKSSDKSVCLFTDFDSQTNVSQSKDSDVYITDKTVLDMRSMDFKSNSAVAWSNKSDFACANAFNNSIIPEDTFFPSPESSCDVKLVEKSFETDTNLNFQNLSVIGFRILLLKVAGFNLLMTLRLWSS
beta: MGTRLLCWVVLGFLGTDHTGAGVSQSPRYKVAKRGQDVALRCDPISGHVSLFWYQQALGQGPEFLTYFQNEAQLDKSGLPSDRFFAERPEGSVSTLKIQRTQQEDSAVYLCASSLEGGDTQYFGPGTRLTVLEDLKNVFPPEVAVFEPSEAEISHTQKATLVCLATGFYPDHVELSWWVNGKEVHSGVSTDPQPLKEQPALNDSRYCLSSRLRVSATFWQNPRNHFRCQVQFYGLSENDEWTQDRAKPVTQIVSAEAWGRADCGFTSESYQQGVLSATILYEILLGKATLYAVLVSALVLMAMVKRKDSRG
modifications: Description of sequence: Full alpha-chain; Description of sequence: Full beta-chain
- reactivity (IFN-γ) to alternative human peptide sequences possessing the recognition motif [1]: did not exhibit reactivity

B4: TCR 1 (TCR, V domains shown)
Valpha: GDSVTQMEGPVTLSEEAFLTINCTYTATGYPSLFWYVQYPGEGLQLLLKATKADDKGSNKGFEATYRKETTSFHLEKGSVQVSDSAVYFCALSDRVGGARLMFGDGTQLVVKP
Vbeta: EADIYQTPRYLVIGTGKKITLECSQTMGHDKMYWYQQDPGMELHLIHYSYGVNSTEKGDLSSESTVSRIRTEHFPLTLESARPSHTSQYLCASSEGLYNEQFFGPGTRLTVL
- binding result [2]: no recognition
- binding result [3]: no recognition
- binding result [4]: recognises

B5: TCR 3: T cell receptor targeting RAS G12D peptide; α chain SEQ ID NO: 31, β chain SEQ ID NO: 32 (protein, listed as Homo sapiens)
alpha: MACPGFLWALVISTCLEFSMAQTVTQSQPEMSVQEAETVTLSCTYDTSESDYYLFWYKQPPSRQMILVIRQEAYKQQNATENRFSVNFQKAAKSFSLKISDSQLGDAAMYFCAYRSDGGATNKLIFGTGTLLAVQPNIQNPDPAVYQLRDSKSSDKSVCLFTDFDSQTNVSQSKDSDVYITDKTVLDMRSMDFKSNSAVAWSNKSDFACANAFNNSIIPEDTFFPSPESSCDVKLVEKSFETDTNLNFQNLSVIGFRILLLKVAGFNLLMTLRLWSS
beta: MGPQLLGYVVLCLLGAGPLEAQVTQNPRYLITVTGKKLTVTCSQNMNHEYMSWYRQDPGLGLRQIYYSMNVEVTDKGDVPEGYKVSRKEKRNFPLILESPSPNQTSLYFCASSLGAGGYNSPLHFGNGTRLTVTEDLNKVFPPEVAVFEPSEAEISHTQKATLVCLATGFFPDHVELSWWVNGKEVHSGVSTDPQPLKEQPALNDSRYCLSSRLRVSATFWQNPRNHFRCQVQFYGLSENDEWTQDRAKPVTQIVSAEAWGRADCGFTSVSYQQGVLSATILYEILLGKATLYAVLVSALVLMAMVKRKDF
modifications: Description of sequence: Full alpha-chain; Description of sequence: Full beta-chain
- reactivity (IFN-γ) to alternative human peptide sequences possessing the recognition motif [1]: low level reactivity to a single alternative peptide

Continued, values first:

- reactivity (IFN-γ) to alternative human peptide sequences possessing the recognition motif [1]: did not exhibit reactivity
B1: TCR 2: T cell receptor targeting RAS G12D peptide; α chain SEQ ID NO: 22, β chain SEQ ID NO: 23 (protein, listed as Homo sapiens)
alpha: MTRVSLLWAVVVSTCLESGMAQTVTQSQPEMSVQEAETVTLSCTYDTSENNYYLFWYKQPPSRQMILVIRQEAYKQQNATENRFSVNFQKAAKSFSLKISDSQLGDTAMYFCAFMYPSQGGSEKLVFGKGMKLTVNPNIQNPDPAVYQLRDSKSSDKSVCLFTDFDSQTNVSQSKDSDVYITDKTVLDMRSMDFKSNSAVAWSNKSDFACANAFNNSIIPEDTFFPSPESSCDVKLVEKSFETDTNLNFQNLSVIGFRILLLKVAGFNLLMTLRLWSS
beta: MGPGLLCWVLLCLLGAGSVETGVTQSPTHLIKTRGQQVTLRCSSQSGHNTVSWYQQALGQGPQFIFQYYREEENGRGNFPPRFSGLQFPNYSSELNVNALELDDSALYLCASSSPGFRSYGYTFGSGTRLTVVEDLNKVFPPEVAVFEPSEAEISHTQKATLVCLATGFFPDHVELSWWVNGKEVHSGVSTDPQPLKEQPALNDSRYCLSSRLRVSATFWQNPRNHFRCQVQFYGLSENDEWTQDRAKPVTQIVSAEAWGRADCGFTSVSYQQGVLSATILYEILLGKATLYAVLVSALVLMAMVKRKDF
modifications: Description of sequence: Full alpha-chain; Description of sequence: Full beta-chain

- reactivity (IFN-γ) to alternative human peptide sequences possessing the recognition motif [1]: did not exhibit reactivity
B3: TCR 4: T cell receptor targeting RAS G12D peptide; α chain SEQ ID NO: 41, β chain SEQ ID NO: 42 (protein, listed as Homo sapiens)
alpha: MMKSLRVLLVILWLQLSWVWSQQKEVEQDPGPLSVPEGAIVSLNCTYSNSAFQYFMWYRQYSRKGPELLMYTYSSGNKEDGRFTAQVDKSSKYISLFIRDSQPSDSATYLCAMGALNSGAGSYQLTFGKGTKLSVIPNIQNPDPAVYQLRDSKSSDKSVCLFTDFDSQTNVSQSKDSDVYITDKTVLDMRSMDFKSNSAVAWSNKSDFACANAFNNSIIPEDTFFPSPESSCDVKLVEKSFETDTNLNFQNLSVIGFRILLLKVAGFNLLMTLRLWSS
beta: MGSRLLCWVLLCLLGAGPVKAGVTQTPRYLIKTRGQQVTLSCSPISGHRSVSWYQQTPGQGLQFLFEYFSETQRNKGNFPGRFSGRQFSNSRSEMNVSTLELGDSALYLCASSLSSGTGTEAFFGQGTRLTVVEDLNKVFPPEVAVFEPSEAEISHTQKATLVCLATGFFPDHVELSWWVNGKEVHSGVSTDPQPLKEQPALNDSRYCLSSRLRVSATFWQNPRNHFRCQVQFYGLSENDEWTQDRAKPVTQIVSAEAWGRADCGFTSVSYQQGVLSATILYEILLGKATLYAVLVSALVLMAMVKRKDF
modifications: Description of sequence: Full alpha-chain; Description of sequence: Full beta-chain

- reactivity (IFN-γ) to alternative human peptide sequences possessing the recognition motif [1]: did not exhibit reactivity
B6: TCR 1: T cell receptor targeting RAS G12D peptide; α chain SEQ ID NO: 12, β chain SEQ ID NO: 13 (protein, listed as Homo sapiens)
alpha: MNYSPGLVSLILLLLGRTRGDSVTQMEGPVTLSEEAFLTINCTYTATGYPSLFWYVQYPGEGLQLLLKATKADDKGSNKGFEATYRKETTSFHLEKGSVQVSDSAVYFCALSDRVGGARLMFGDGTQLVVKPNIQNPDPAVYQLRDSKSSDKSVCLFTDFDSQTNVSQSKDSDVYITDKTVLDMRSMDFKSNSAVAWSNKSDFACANAFNNSIIPEDTFFPSPESSCDVKLVEKSFETDTNLNFQNLSVIGFRILLLKVAGFNLLMTLRLWSS
beta: MTIRLLCYMGFYFLGAGLMEADIYQTPRYLVIGTGKKITLECSQTMGHDKMYWYQQDPGMELHLIHYSYGVNSTEKGDLSSESTVSRIRTEHFPLTLESARPSHTSQYLCASSEGLYNEQFFGPGTRLTVLEDLKNVFPPEVAVFEPSEAEISHTQKATLVCLATGFYPDHVELSWWVNGKEVHSGVSTDPQPLKEQPALNDSRYCLSSRLRVSATFWQNPRNHFRCQVQFYGLSENDEWTQDRAKPVTQIVSAEAWGRADCGFTSESYQQGVLSATILYEILLGKATLYAVLVSALVLMAMVKRKDSRG
modifications: Description of sequence: Full alpha-chain; Description of sequence: Full beta-chain
